Assay results published in the Immune Epitope Database (IEDB).
Blank lines part the entries; values can stand above or below the sequence they belong to.

Legend:
HLA-A*24:03 = assay: IEDB peptide-MHC binding, purified MHC/competitive/fluorescence; filed as Kd, often an IC50 or EC50 that approximates it; ≥ and ≤ were set here for values at or beyond the usual limits of such assays
HLA-A*26:01 = assay: as above
HLA-B*57:01 [1] = assay: as above
HLA-B*39:01 = assay: as above
HLA-B*27:03 = assay: as above
HLA-A*03:01 [2] = assay: as above
HLA-B*51:01 = assay: as above
HLA-A*02:01 [3] = assay: as above
HLA-B*18:01 [4] = assay: as above
HLA-B*15:17 = assay: as above
HLA-B*46:01 = assay: IEDB peptide-MHC binding, purified MHC/direct/fluorescence; filed as Kd, often an IC50 or EC50 that approximates it; ≥ and ≤ were set here for values at or beyond the usual limits of such assays
HLA-B*08:02 = assay: as above; settings: source organism: West Nile virus strain PTRoxo
HLA-A*01:01 = assay: as above
HLA-A*29:02 [5] = assay: as above
HLA-A*11:01 [6] = assay: as above
HLA-B*58:01 = assay: as above
HLA-B*57:01 [7] = assay: as above
HLA-A*03:01 [8] = assay: as above
HLA-B*27:05 = assay: as above
HLA-B*07:02 = assay: as above
HLA-B*18:01 [9] = assay: as above
HLA-A*69:01 = assay: as above
HLA-B*08:01 = assay: as above
HLA-A*31:01 [10] = assay: as above
HLA-B*15:03 = assay: IEDB peptide-MHC binding, purified MHC/competitive/radioactivity; filed as Kd, often an IC50 or EC50 that approximates it; ≥ and ≤ were set here for values at or beyond the usual limits of such assays; settings: source organism: Vaccinia virus WR
HLA-A*11:01 [11] = assay: IEDB peptide-MHC binding, purified MHC/competitive/fluorescence; ≥ and ≤ were set here for values at or beyond the usual limits of such assays
HLA-B*15:01 [12] = assay: as above
HLA-A*02:01 [13] = assay: as above
HLA-A*24:02 = assay: as above
HLA-A*31:01 [14] = assay: IEDB peptide-MHC binding, purified MHC/competitive/fluorescence; filed as Kd, often an IC50 or EC50 that approximates it; ≥ and ≤ were set here for values at or beyond the usual limits of such assays
HLA-B*15:01 [15] = assay: IEDB peptide-MHC binding, purified MHC/direct/fluorescence; filed as Kd, often an IC50 or EC50 that approximates it; ≥ and ≤ were set here for values at or beyond the usual limits of such assays
HLA-A*02:01 [16] = assay: as above
HLA-A*29:02 [17] = assay: IEDB peptide-MHC binding, purified MHC/competitive/fluorescence; filed as Kd, often an IC50 or EC50 that approximates it; ≥ and ≤ were set here for values at or beyond the usual limits of such assays
HLA-A*02:19 = assay: IEDB peptide-MHC binding, purified MHC/direct/fluorescence; filed as Kd, often an IC50 or EC50 that approximates it; ≥ and ≤ were set here for values at or beyond the usual limits of such assays; settings: source organism: Salmonella enterica subsp. enterica serovar Typhimurium
HLA-A*30:01 = assay: IEDB peptide-MHC binding, purified MHC/competitive/fluorescence; filed as Kd, often an IC50 or EC50 that approximates it; ≥ and ≤ were set here for values at or beyond the usual limits of such assays; settings: source organism: Nostoc punctiforme PCC 73102
HLA-B*44:02 = assay: IEDB peptide-MHC binding, purified MHC/direct/fluorescence; filed as Kd, often an IC50 or EC50 that approximates it; ≥ and ≤ were set here for values at or beyond the usual limits of such assays; settings: source organism: Orthohantavirus seoulense
HLA-A*68:02 = assay: as above; settings: source organism: Limestone Canyon virus
HLA-A*02:12 = assay: as above; settings: source organism: Limestone Canyon virus
HLA-B*40:01 = assay: as above; settings: source organism: Orthohantavirus seoulense
HLA-B*48:01 = assay: as above; settings: source organism: Orthohantavirus seoulense
[18] = source organism: West Nile virus
[19] = source organism: Vaccinia virus
[20] = source organism: Sudan ebolavirus
[21] = source organism: Influenza A virus (A/chicken/Viet Nam/DT-015/2004(H5N1))
[22] = source organism: dengue virus type 1
[23] = source organism: Ephydatia fluviatilis
[24] = source organism: Salmonella enterica subsp. enterica serovar Typhimurium
[25] = source organism: Vaccinia virus Copenhagen
[26] = source organism: Yellow fever virus
[27] = source organism: Orthohantavirus seoulense

- Kd (HLA-A*24:03; source organism: Mus musculus): ≥ 20 µM
- Kd (HLA-A*26:01; source organism: Mus musculus): ≥ 20 µM
- Kd (HLA-B*57:01 [1]; source organism: Mus musculus): ≥ 20 µM
- Kd (HLA-B*39:01; source organism: Mus musculus): ≥ 20 µM
- Kd (HLA-B*27:03; source organism: Mus musculus): ≥ 20 µM
- Kd (HLA-A*03:01 [2]; source organism: Mus musculus): ≥ 20 µM
- Kd (HLA-B*51:01; source organism: Mus musculus): ≥ 20 µM
- Kd (HLA-A*02:01 [3]; source organism: Mus musculus): 0.0037 µM
- Kd (HLA-B*18:01 [4]; source organism: Mus musculus): ≥ 20 µM
- Kd (HLA-B*15:17; source organism: Mus musculus): ≥ 20 µM
Sequence: CLVSGLSSL

Sequence: GMSWITQGL
- Kd (HLA-B*46:01; [18]): ≥ 20 µM
- Kd (HLA-B*08:02): ≥ 20 µM
- Kd (HLA-A*01:01; [18]): ≥ 20 µM
- Kd (HLA-A*29:02 [5]; [18]): ≥ 20 µM
- Kd (HLA-A*11:01 [6]; [18]): ≥ 20 µM
- Kd (HLA-B*58:01; [18]): ≥ 20 µM
- Kd (HLA-B*57:01 [7]; [18]): ≥ 20 µM
- Kd (HLA-A*03:01 [8]; [18]): ≥ 20 µM
- Kd (HLA-B*27:05; [18]): ≥ 20 µM
- Kd (HLA-B*07:02; [18]): ≥ 20 µM
- Kd (HLA-B*18:01 [9]; [18]): ≥ 20 µM
- Kd (HLA-A*69:01; [18]): 1.33 µM
- Kd (HLA-B*08:01; [18]): ≥ 20 µM
- Kd (HLA-A*31:01 [10]; [18]): ≥ 20 µM

Sequence: KQKMFSNNV
- Kd (HLA-B*15:03): 0.0193 µM
- IC50 (HLA-A*11:01 [11]; [19]): ≥ 116 µM
- IC50 (HLA-B*15:01 [12]; [19]): 44.4 µM
- IC50 (HLA-A*02:01 [13]; [19]): 7.07 µM

Sequence: ESSINISGY
- Kd (HLA-A*01:01; source organism: Mammarenavirus juninense): 0.346 µM
- Kd (HLA-A*29:02 [5]; source organism: Mammarenavirus machupoense): 0.23 µM

Sequence: VIILFQKAF
- IC50 (HLA-B*15:01 [12]; [20]): ≥ 143 µM
- IC50 (HLA-A*02:01 [13]; [20]): ≥ 544 µM
- IC50 (HLA-A*24:02; [20]): 1.61 µM

Sequence: GSLFTEQAF
- IC50 (HLA-B*15:01 [12]; source organism: Vaccinia virus WR): 5.94 µM

Sequence: GIPLYDAIK
- Kd (HLA-A*11:01 [6]; [21]): 7.78 µM
- Kd (HLA-A*03:01 [8]; [21]): ≥ 20 µM
- Kd (HLA-A*31:01 [14]; source organism: Influenza A virus (A/X-31(H3N2))): ≥ 20 µM

- Kd (HLA-A*24:03; source organism: Escherichia coli str. K-12 substr. MG1655): 0.11 µM
Sequence: AWQRTLKWF

Sequence: SSMVNGVVR
- Kd (HLA-A*11:01 [6]; [22]): 0.0261 µM
- Kd (HLA-A*31:01 [14]; [22]): 0.0184 µM

Sequence: ETFNTPAMY
- Kd (HLA-A*01:01; source organism: Homo sapiens): 1.27 µM
- Kd (HLA-A*29:02 [5]; source organism: Entamoeba histolytica HM-1:IMSS): 0.01 µM
- Kd (HLA-A*11:01 [6]; source organism: Homo sapiens): ≥ 38.9 µM
- Kd (HLA-B*15:01 [15]; source organism: Homo sapiens): 0.554 µM
- Kd (HLA-A*03:01 [8]; source organism: Homo sapiens): 10.5 µM
- Kd (HLA-A*02:01 [16]; source organism: Homo sapiens): ≥ 36.2 µM
- Kd (HLA-A*69:01; source organism: Homo sapiens): 0.0596 µM

- Kd (HLA-A*24:03; [23]): ≥ 20 µM
- Kd (HLA-A*26:01; [23]): ≥ 20 µM
- Kd (HLA-A*29:02 [17]; [23]): ≥ 20 µM
- Kd (HLA-B*57:01 [1]; [23]): ≥ 20 µM
- Kd (HLA-B*39:01; [23]): ≥ 20 µM
- Kd (HLA-B*27:03; [23]): ≥ 20 µM
- Kd (HLA-A*03:01 [2]; [23]): ≥ 20 µM
- Kd (HLA-B*51:01; [23]): ≥ 20 µM
- Kd (HLA-A*02:01 [3]; [23]): 0.041 µM
- Kd (HLA-B*18:01 [4]; [23]): ≥ 20 µM
- Kd (HLA-B*15:17; [23]): ≥ 20 µM
Sequence: TLKPGTMSV

Sequence: GVNACQVGV
- Kd (HLA-B*58:01; [24]): 0.392 µM
- Kd (HLA-A*02:19): 0.023 µM
- Kd (HLA-A*02:01 [16]; [24]): 0.239 µM
- Kd (HLA-A*69:01; [24]): 0.392 µM
- Kd (HLA-A*31:01 [10]; [24]): 10.2 µM

- Kd (HLA-A*24:03; source organism: Nostoc punctiforme PCC 73102): 0.0039 µM
- Kd (HLA-A*30:01): ≥ 20 µM
Sequence: WFSSGLWPF

Sequence: KTFKDESIF
- IC50 (HLA-A*11:01 [11]; [25]): 61 µM
- IC50 (HLA-B*15:01 [12]; [25]): 9.29 µM
- IC50 (HLA-A*02:01 [13]; [25]): 66.8 µM
- IC50 (HLA-A*24:02; [25]): 24.2 µM

Sequence: ALNTITNLK
- Kd (HLA-A*11:01 [6]; [26]): 0.0086 µM
- Kd (HLA-A*31:01 [14]; [26]): 0.0414 µM

Sequence: VLWDTPSPK
- Kd (HLA-A*11:01 [6]; [18]): 0.0045 µM
- Kd (HLA-A*31:01 [14]; [18]): 0.0339 µM

Sequence: IWWEQYMQY
- Kd (HLA-A*29:02 [17]; source organism: Shigella boydii): ≤ 0.0001 µM

Sequence: KMFTFWYMR
- Kd (HLA-A*11:01 [6]; source organism: Fowlpox virus): 0.0063 µM
- Kd (HLA-A*03:01 [8]; source organism: Fowlpox virus): 0.387 µM
- Kd (HLA-A*31:01 [14]; source organism: Fowlpox virus): 0.00137 µM

Sequence: KVIDIDLER
- Kd (HLA-A*11:01 [6]; source organism: Mycobacterium tuberculosis): 0.0139 µM
- Kd (HLA-A*31:01 [14]; source organism: Mycobacterium tuberculosis C): 0.0192 µM

Sequence: KPKHLYVSM
- Kd (HLA-B*46:01; [27]): ≥ 20 µM
- Kd (HLA-A*01:01; [27]): ≥ 20 µM
- Kd (HLA-B*44:02): ≥ 20 µM
- Kd (HLA-A*11:01 [6]; [27]): ≥ 20 µM
- Kd (HLA-B*58:01; [27]): ≥ 20 µM
- Kd (HLA-B*57:01 [7]; [27]): ≥ 20 µM
- Kd (HLA-A*68:02): ≥ 20 µM
- Kd (HLA-B*15:01 [15]; [27]): ≥ 20 µM
- Kd (HLA-A*03:01 [8]; [27]): ≥ 20 µM
- Kd (HLA-B*27:05; [27]): ≥ 20 µM
- Kd (HLA-B*07:02; [27]): 0.0844 µM
- Kd (HLA-A*02:01 [16]; [27]): ≥ 20 µM
- Kd (HLA-B*18:01 [9]; [27]): ≥ 20 µM
- Kd (HLA-A*02:12): ≥ 20 µM
- Kd (HLA-A*69:01; [27]): ≥ 20 µM
- Kd (HLA-B*08:01; [27]): 0.254 µM
- Kd (HLA-B*40:01): ≥ 20 µM
- Kd (HLA-A*31:01 [10]; [27]): ≥ 20 µM
- Kd (HLA-B*48:01): ≥ 20 µM
- Kd (HLA-A*26:01; [27]): ≥ 20 µM
- Kd (HLA-B*39:01; [27]): ≥ 20 µM
- Kd (HLA-B*27:03; [27]): ≥ 20 µM
- Kd (HLA-B*51:01; [27]): ≥ 20 µM
- Kd (HLA-B*15:17; [27]): ≥ 20 µM
